Sequences and labels used below:
B1: EHMT1 (parent)
chain: FHKDCASRVNNASYCPHCGEESSK
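Also: lentivirally expressed fusions sorted by FACS into six bins by GFP to DsRed ratio, PSI derived from sequencing read proportions per bin multiplied by bin number.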

The variants in this data set derive from B1. Put plainly: protein stability index of a GFP-peptide fusion (GPS, HEK-293T) (PSI 1-6); higher = more stable. Conditions: c terminus: a fixed tail appended.
Take FHKDCASRVNNLSYCPHCGEESSK: the protein stability index was 3.06.
For FHKDCASRVNNKSYCPHCGEESSK, the protein stability index amounted to 3.36.
To FHKDCASRVNNPSYCPHCGEESSK belongs 3.25; to FHKDCASRVNNRSYCPHCGEESSK, 3.33; to FHKDCASRVNNQSYCPHCGEESSK, 3.96.
To FHKDCASRVNNTSYCPHCGEESSK belongs 3.31; to FHKDCASRVNNYSYCPHCGEESSK, 2.85.
With FHKDCASRVNNDSYCPHCGEESSK the figure was 4.27; with FHKDCASRVNNESYCPHCGEESSK, 3.81.
Consider FHKDCASRVNNVSYCPHCGEESSK, for which the protein stability index came out at 3.
Take FHKDCASRVNNNSYCPHCGEESSK: the protein stability index came to 3.37.
To FHKDCASRVNNGSYCPHCGEESSK belongs 4.34; to FHKDCASRVNNCSYCPHCGEESSK, 3.35.
With FHKDCASRVNNISYCPHCGEESSK the figure was 2.95.
For FHKDCASRVNNMSYCPHCGEESSK, the protein stability index worked out at 3.24.
As for FHKDCASRVNNSSYCPHCGEESSK, the protein stability index was determined as 3.29.
To FHKDCASRVNNWSYCPHCGEESSK belongs 2.54; to FHKDCASRVNNFSYCPHCGEESSK, 2.48.
For the variant FHKDCASRVNNHSYCPHCGEESSK, the protein stability index was 3.22.
To FHKDSASRVNNASYCPHCGEESSK belongs 2.56; to FHKDVASRVNNASYCPHCGEESSK, 2.59.
FHKDNASRVNNASYCPHCGEESSK: the protein stability index worked out at 2.61.
With FHKDAASRVNNASYCPHCGEESSK the figure was 2.53.
To FHKDDASRVNNASYCPHCGEESSK belongs 3.19.
To FHKDGASRVNNASYCPHCGEESSK belongs 2.52.
On to FHKDIASRVNNASYCPHCGEESSK, for which the protein stability index was determined as 2.42.
Take FHKDWASRVNNASYCPHCGEESSK: the protein stability index was determined as 2.55.
To FHKDYASRVNNASYCPHCGEESSK belongs 2.25; to FHKDQASRVNNASYCPHCGEESSK, 2.25; to FHKDFASRVNNASYCPHCGEESSK, 2.72.
With FHKDHASRVNNASYCPHCGEESSK the figure was 2.3.
With FHKDEASRVNNASYCPHCGEESSK the figure was 2.82; with FHKDTASRVNNASYCPHCGEESSK, 2.25; with FHKDRASRVNNASYCPHCGEESSK, 2.36.
Consider FHKDPASRVNNASYCPHCGEESSK, for which the protein stability index worked out at 1.77.
To FHKDLASRVNNASYCPHCGEESSK belongs 2.4; to FHKDMASRVNNASYCPHCGEESSK, 2.46; to FHKDKASRVNNASYCPHCGEESSK, 2.13.
To FHKDCASRYNNASYCPHCGEESSK belongs 3.21; to FHKDCASRKNNASYCPHCGEESSK, 3.66; to FHKDCASRRNNASYCPHCGEESSK, 3.63.
To FHKDCASRGNNASYCPHCGEESSK belongs 4.14.
For the variant FHKDCASRMNNASYCPHCGEESSK, the protein stability index was 3.37.
To FHKDCASRANNASYCPHCGEESSK belongs 3.47; to FHKDCASRPNNASYCPHCGEESSK, 3.84; to FHKDCASRNNNASYCPHCGEESSK, 3.39.
FHKDCASRFNNASYCPHCGEESSK: the protein stability index was 2.92.
To FHKDCASRTNNASYCPHCGEESSK belongs 3.73.
To FHKDCASRSNNASYCPHCGEESSK belongs 3.79; to FHKDCASRHNNASYCPHCGEESSK, 4.71; to FHKDCASRQNNASYCPHCGEESSK, 3.74.
FHKDCASRENNASYCPHCGEESSK: the protein stability index was 3.87.
With FHKDCASRINNASYCPHCGEESSK the figure was 3.65; with FHKDCASRLNNASYCPHCGEESSK, 3.73; with FHKDCASRWNNASYCPHCGEESSK, 2.31.
To FHKDCASRCNNASYCPHCGEESSK belongs 4.31; to FHKDCASRDNNASYCPHCGEESSK, 3.94.
With FHKDCASRVNNATYCPHCGEESSK the figure was 3.72.
Take FHKDCASRVNNAAYCPHCGEESSK: the protein stability index stood at 3.36.
With FHKDCASRVNNAVYCPHCGEESSK the figure was 2.76; with FHKDCASRVNNALYCPHCGEESSK, 2.62.
With FHKDCASRVNNAMYCPHCGEESSK the figure was 3.13; with FHKDCASRVNNAKYCPHCGEESSK, 3.46; with FHKDCASRVNNAEYCPHCGEESSK, 3.77.
To FHKDCASRVNNANYCPHCGEESSK belongs 3.6; to FHKDCASRVNNAGYCPHCGEESSK, 3.97.
For FHKDCASRVNNARYCPHCGEESSK, the protein stability index came to 3.16.
On to FHKDCASRVNNAWYCPHCGEESSK, for which the protein stability index was 2.15.
To FHKDCASRVNNAIYCPHCGEESSK belongs 2.17.
For the variant FHKDCASRVNNACYCPHCGEESSK, the protein stability index was 2.37.
To FHKDCASRVNNAPYCPHCGEESSK belongs 3.12; to FHKDCASRVNNAFYCPHCGEESSK, 2.34; to FHKDCASRVNNAHYCPHCGEESSK, 3.66.
With FHKDCASRVNNAYYCPHCGEESSK the figure was 2.34.
For FHKDCASRVNNADYCPHCGEESSK, the protein stability index was found to be 3.81.
With FHKDCASRVNNAQYCPHCGEESSK the figure was 3.8.
Turning to FHKDCRSRVNNASYCPHCGEESSK, the protein stability index amounted to 2.97.
To FHKDCSSRVNNASYCPHCGEESSK belongs 3.52; to FHKDCQSRVNNASYCPHCGEESSK, 4.04; to FHKDCISRVNNASYCPHCGEESSK, 3.23.
Take FHKDCGSRVNNASYCPHCGEESSK: the protein stability index is 3.59.
To FHKDCESRVNNASYCPHCGEESSK belongs 3.6; to FHKDCYSRVNNASYCPHCGEESSK, 2.26; to FHKDCWSRVNNASYCPHCGEESSK, 1.96.
To FHKDCLSRVNNASYCPHCGEESSK belongs 2.85.
With FHKDCMSRVNNASYCPHCGEESSK the figure was 3.07; with FHKDCVSRVNNASYCPHCGEESSK, 3.5; with FHKDCHSRVNNASYCPHCGEESSK, 3.34.
Consider FHKDCNSRVNNASYCPHCGEESSK, for which the protein stability index amounted to 3.41.
To FHKDCKSRVNNASYCPHCGEESSK belongs 3.53; to FHKDCCSRVNNASYCPHCGEESSK, 4.35; to FHKDCDSRVNNASYCPHCGEESSK, 3.52.
In the case of FHKDCFSRVNNASYCPHCGEESSK, the protein stability index turned out to be 2.28.
As for FHKDCPSRVNNASYCPHCGEESSK, the protein stability index stood at 3.83.
